From patent publication US20250011433A1 (GLIKNIK, published 2025) come the findings set out here.

Residue numbers refer to the chain shown, from its start. In names and notes the source's numbering stands.

For one assay, the target named is T1, FcγRIIb (UniProt P31994 46-217, limits assumed).
T1 sequence (looked up): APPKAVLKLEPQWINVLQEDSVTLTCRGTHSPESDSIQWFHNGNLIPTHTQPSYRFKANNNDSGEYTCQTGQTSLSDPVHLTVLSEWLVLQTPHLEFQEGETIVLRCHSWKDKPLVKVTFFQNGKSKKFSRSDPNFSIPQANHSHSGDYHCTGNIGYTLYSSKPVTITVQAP
Description: BLI (Octet). As to the method:
(§1) Binding of complement-preferential stradomers or parent stradomer G045c to FcγRI, FcγRIIb, FcγRIIIa, FcγRIIa, or FcRn was assessed. RU values of dissociation were measured by biolayer interferometry using a ForteBio Octet instrument. His-tagged receptor proteins were bound to the sensor tip in 1× kinetic analysis buffer from ForteBio after which the on rate of the receptor/protein was measured by transferring the sensor tip to a 1× kinetics buffer containing the purified stradomer of choice. Off rate was measured by transferring the sensor tip to a 1× kinetics buffer, and RU value was calculated from the measured maximum binding using the ForteBio software. Biolayer interferometry detects the binding between a ligand immobilized on the biosensor tip surface and an analyte in solution. When binding occurs it produces an increase in optical thickness at the biosensor tip, which results in a wavelength shift (detected as a response unit of “RU”). The maximum binding level (RU max) is the maximum possible amount of sample binding at equilibrium that saturates the amount of ligand on the sensor surface. The RU 300 is the residual sample binding after 300 seconds of dissociation and is useful to characterize the rate of dissociation of the test article from the test ligand.
(§2) For each stradomer in Tables 5-9, the level of canonical FcγR binding, complement C1q binding, and CDC inhibition were determined according to the methods described in Example 1.
In general terms: BLI is a label-free optical method that tracks binding on a fibre tip over time.

For another assay, the target named is T2, FcγRI (UniProt P12314 16-288).
T2 construct: also called CD64
Description: BLI (Octet). As to the method:
as §1, §2

The next assay addresses C1q (UniProt P02745 23-245; P02746 28-253; P02747 29-245). The assay is described as follows: cell-based or functional assay.

Sequence of C1q (P02745 23-245 limits assumed, chain 1 of 3): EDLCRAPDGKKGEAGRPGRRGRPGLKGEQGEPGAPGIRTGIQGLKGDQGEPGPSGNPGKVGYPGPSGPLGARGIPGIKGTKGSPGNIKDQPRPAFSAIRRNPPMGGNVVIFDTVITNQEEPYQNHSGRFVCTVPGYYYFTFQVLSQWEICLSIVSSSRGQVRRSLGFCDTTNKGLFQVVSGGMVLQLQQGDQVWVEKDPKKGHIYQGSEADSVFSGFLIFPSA
Sequence of C1q (P02746 28-253 limits assumed, chain 2 of 3): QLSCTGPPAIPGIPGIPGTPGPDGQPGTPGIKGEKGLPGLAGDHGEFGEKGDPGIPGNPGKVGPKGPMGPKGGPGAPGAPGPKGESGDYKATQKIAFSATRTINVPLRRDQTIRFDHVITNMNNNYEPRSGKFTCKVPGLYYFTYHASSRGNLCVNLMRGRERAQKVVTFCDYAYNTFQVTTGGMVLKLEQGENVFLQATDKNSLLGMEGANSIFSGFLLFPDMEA
Sequence of C1q (P02747 29-245 limits assumed, chain 3 of 3): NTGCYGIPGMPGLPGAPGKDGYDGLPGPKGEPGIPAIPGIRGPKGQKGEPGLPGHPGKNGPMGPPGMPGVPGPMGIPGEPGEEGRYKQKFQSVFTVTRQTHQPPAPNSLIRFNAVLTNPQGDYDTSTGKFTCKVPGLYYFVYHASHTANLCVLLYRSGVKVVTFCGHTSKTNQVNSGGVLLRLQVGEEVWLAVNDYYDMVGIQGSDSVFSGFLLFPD
T2 sequence (P12314 16-288 limits assumed): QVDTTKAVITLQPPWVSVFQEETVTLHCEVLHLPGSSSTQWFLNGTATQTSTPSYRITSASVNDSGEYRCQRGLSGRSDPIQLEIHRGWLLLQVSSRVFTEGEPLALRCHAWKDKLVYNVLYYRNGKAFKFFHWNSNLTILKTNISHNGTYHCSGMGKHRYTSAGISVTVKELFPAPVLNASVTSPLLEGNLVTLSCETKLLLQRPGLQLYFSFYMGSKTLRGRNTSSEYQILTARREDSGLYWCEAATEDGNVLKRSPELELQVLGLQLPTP

B1: G1068 (Fc fusion)
chain: EPKSCDKTHTCPPCPAPELLGGPSVFLFPPKPKDTLMISRTPEVTCVVVDVEFEDPEVKFNWYVDGVEVHNAKTKPREEQYNSAYRVVSVLTVLHQDWLNGKEYKCKVTNKALPAPIEKTISKAKGQPREPQVYTLPPSRDELTKNQVSLTCLVKGFYPSDIAVEWESNGQPENNYKTTPPVLDSDGSFFLYSKLTVDKSRWQQGNVFSCSVMHEALHNHYTQKSLSLSPGKERKCCVECPPCP
notes: G045c background, S267E/H268F/S324T/T299A; leader 1-20 cleaved
Turning to B1, the binding result with FcγRIIb and in the assay with FcγRI was “binds” throughout.

B2: G1128 (Fc fusion)
chain: B1 chain with E18P, G21K, E52N, A84T
notes: G045c background, E233P/G236K/S267N/H268F/S324T; leader 1-20 cleaved
Consider B2, for which the binding result with FcγRIIb and with FcγRI was “binds” each time.

B3: G1124 (Fc fusion)
chain: B1 chain with E18P, G21K, E52K, A84T
notes: G045c background, E233P/G236K/S267K/H268F/S324T; leader 1-20 cleaved
In the case of B3, the binding result with FcγRIIb and with FcγRI was “binds” each time.

B4: G1075 (Fc fusion)
chain: B1 chain with E52Q, N82A, A84T
notes: G045c background, S267Q/H268F/S324T/N297A; leader 1-20 cleaved
Regarding B4, the binding result with FcγRI was “binds”. In addition, in the assay with C1q, the “CDC Inhibition (EC50, µg/mL)” value came out at 15 µg/mL.

B5: G1118 (Fc fusion)
chain: B1 chain with E18P, G21Q, E52Q, A84T
notes: G045c background, E233P/G236Q/S267Q/H268F/S324T; leader 1-20 cleaved
Regarding B5, the binding result with FcγRIIb and with FcγRI was “binds” throughout.

B6: G1115 (Fc fusion)
chain: B1 chain with E18P, G21E, E52R, A84T
notes: G045c background, E233P/G236E/S267R/H268F/S324T; leader 1-20 cleaved
Turning to B6, the binding result in the assay with FcγRI is given as “binds”. In addition, the “CDC Inhibition (EC50, µg/mL)” value with C1q was 50 µg/mL.

B7: G1089 (Fc fusion)
chain: B1 chain with E18P, G21R, E52S, A84T
notes: G045c background, E233P/G236R/H268F/S324T; leader 1-20 cleaved
Turning to B7, the binding result with FcγRIIb and with FcγRI was “binds” each time.

B8: G1106 (Fc fusion)
chain: B1 chain with E18P, G21K, E52S, A84T
notes: G045c background, E233P/G236K/H268F/S324T; leader 1-20 cleaved
In the case of B8, in the assay with FcγRI, the binding result is given as “binds”.

B9: G1074 (Fc fusion)
chain: B1 chain with E52D, N82A, A84T
notes: G045c background, S267D/H268F/S324T/N297A; leader 1-20 cleaved
With B9, the binding result with FcγRIIb and in the assay with FcγRI was “binds” in each case.

B10: G1110 (Fc fusion)
chain: B1 chain with E18P, G21D, E52R, A84T
notes: G045c background, E233P/G236D/S267R/H268F/S324T; leader 1-20 cleaved
Consider B10, for which the binding result with FcγRI was “binds”. In the assay with C1q, the “CDC Inhibition (EC50, µg/mL)” value worked out at 25 µg/mL.

B11: G1130 (Fc fusion)
chain: B1 chain with E18P, G21N, E52K, A84T
notes: G045c background, E233P/G236N/S267K/H268F/S324T; leader 1-20 cleaved
Turning to B11, the binding result in the assay with FcγRIIb and with FcγRI was “binds” in each case.

B12: G1082 (Fc fusion)
chain: B1 chain with E18P, G21H, E52S, A84T
notes: G045c background, E233P/G236H/H268F/S324T; leader 1-20 cleaved
B12: the binding result with FcγRI was “binds”. Further, the “CDC Inhibition (EC50, µg/mL)” value with C1q was found to be 5 µg/mL.

B13: G1121 (Fc fusion)
chain: B1 chain with E18P, G21D, E52K, A84T
notes: G045c background, E233P/G236D/S267K/H268F/S324T; leader 1-20 cleaved
In the case of B13, the binding result in the assay with FcγRI is given as “binds”.

B14: G1120 (Fc fusion)
chain: B1 chain with E18P, G21R, E52Q, A84T
notes: G045c background, E233P/G236R/S267Q/H268F/S324T; leader 1-20 cleaved
For the molecule B14, the binding result in the assay with FcγRI is on record as “binds”.

B15: G1131 (Fc fusion)
chain: B1 chain with E18P, G21R, E52N, A84T
notes: G045c background, E233P/G236R/S267N/H268F/S324T; leader 1-20 cleaved
As for B15, the binding result with FcγRI was “binds”. For the same molecule, the “CDC Inhibition (EC50, µg/mL)” value with C1q was found to be 15 µg/mL.

B16: G1069 (Fc fusion)
chain: B1 chain with E52S, N82A, A84T
notes: G045c background, H268F/S324T/N297A; leader 1-20 cleaved
For the molecule B16, in the assay with FcγRI, the binding result was “binds”.

B17: G1092 (Fc fusion)
chain: B1 chain with E52D
notes: G045c background, S267D/H268F/S324T/T299A; leader 1-20 cleaved
In the case of B17, the binding result with FcγRIIb and with FcγRI was “binds” throughout.
